This passage reports Kd results from patent CN114456264A (INST OF MICROBIOLOGY OF CHINESE ACADEMY OF SCIENCES, dated 2022).

The test concerns the target SARS-CoV RBD蛋白 (SARS-CoV, UniProt P59594 306-527). Put plainly: SPR, Biacore 8K, RBD on SA chip, antibody as analyte. (In SPR one partner is held on a chip, and binding of the other changes the refractive index at the surface.)

B1: 抗体IMCAS-364 (antibody, V domains shown)
VH: QVQLQESGGGVVQPGRSLRLSCAASGFTFSRYGMHWVRQAPGKGLEWVAVIWYDGSNKYYADSVKGRFTISRDNSKNTLYLQMNSLRADDTAVYYCAKQEGTYCSGGSCYSGLDYWGQGTLVTVSS
VL: not shown
For orientation: Kd means the equilibrium constant for the complex coming apart. Low values mean a tighter complex, high ones a looser complex. As to B1, binding was put at a Kd of 8.17 nM.
